Legend:
[1] = system: mouse monocyte cell line RAW264; assay: Cytokine release from SAA-treated RAW264 monocytes (Luminex); format: cell-based; conditions: RAW264 cells
Experimental: (§1) Cell Culture Conditions. Primary human coronary artery endothelial cells (HCAECs) were purchased from Cambrex (Walkersville, Md.) and grown in endothelial cell basal medium-2 (EBM-2) supplemented with EGM-2 BulletKit. Experiments were conducted between the third to fifth passages. RAW264 cells (ATCC, Manassas, Va.) were grown in RPMI medium 1640 supplemented with about 10% fetal bovine serum. These cells were seeded on 6-well tissue culture plates at about 75% confluence and grown to about 90-95% confluence. The growth medium was replaced with supplement-free media (EBM-2 basal medium for HCAECs and RPMI1640 for RAW264). About one hour after the medium change, the cells were treated with recombinant human SAA (Peprotech, Rocky Hill, N.J.). The endotoxin level for this commercial preparation is advertised as less than about 0.1 ng/μg protein. The conditioned medium was collected about 8 hours after the SAA treatment by centrifugation at about 2,000×g for about 5 minutes and frozen until use for cytokine analysis.
(§2) Cytokine analysis. […] The intra- and inter-assay CV is about 5% and about 8% respectively. […] All samples were assayed in duplicate.

[2] = system: Primary human coronary vascular endothelial cells (HCVECs); assay: Cytokine release from SAA-treated human coronary vascular endothelial cells (Luminex / ELISA); format: cell-based
Experimental: as §1, §2

[3] = system: adipose tissue A-SAA production; assay: Adipose organ culture: direct effect on adipose A-SAA production in vitro; conditions: rosiglitazone 1 μM; dexamethasone 25 nM and insulin 7 nM; about 48 hours, SAA production between 24 to 48 hours; n=3
[4] = SAA 0.47 or 2.3 μg/ml, about 8 hours, serum-free medium, dose-dependent

## lipopolysaccharide [LPS, reference compound]
[1]; LPS 1 ng/ml
  cytokine secretion (endotoxin contamination control): did not stimulate cytokine secretion
[2]; LPS 1 ng/ml
  cytokine secretion (endotoxin contamination control): did not stimulate cytokine secretion

## CN(CCOc1ccc(CC2SC(=O)NC2=O)cc1)c1ccccn1 (centres unmarked) [rosiglitazone]
[3]
  reduction of insulin/dexamethasone stimulation of A-SAA secretion in the media: about 70%

B1: A-SAA: recombinant human SAA (Peprotech); acute-phase serum amyloid A used to treat cells (protein, UniProt P0DJI8 19-122, looked up)
Serum amyloid A-1 protein: RSFFSFLGEAFDGARDMWRAYSDMREANYIGSDKYFHARGNYDAAKRGPGGAWAAEVITDARENIQRFFGHGAEDSLADQAANEWGRSGKDPNHFRPAGLPEKY
[1]; [4]
  release of IL-6: dramatically stimulated
  release of IL-8: dramatically stimulated
  release of RANTE: dramatically stimulated
  release of TNFα: dramatically stimulated
[2]; [4]
  release of IL-6: dramatically stimulated
  release of IL-8: dramatically stimulated
  release of MCP-1: dramatically stimulated
  release of plasminogen activator inhibitor-1 (PAI-1): dramatically stimulated
